{"source": "paper doi:10.1101/2021.03.23.436578", "about": "(bioRxiv, 2021)", "proteins": {"B1": {"name": "Cavin1 (1-190) (domain or fragment, UniProt O54724 1-190, looked up)", "chain": "MEDVTLHIVERPYSGFPDASSEGPEPTQGEARATEEPSGTGSDELIKSDQVNGVLVLSLLDKIIGAVDQIQLTQAQLEERQAEMEGAVQSIQGELSKLGKAHATTSNTVSKLLEKVRKVSVNVKTVRGSLERQAGQIKKLEVNEAELLRRRNFKVMIYQDEVKLPAKLSVSKSLKESEALPEKEGDELGE"}}, "target": "the molecule itself", "test": "mass photometry", "data": [{"protein": "B1", "values": [{"measurement": "stoichiometry N", "result": 3}]}]}
